According to US12539272B2, “Microemulsion-based vaccine delivery system, preparation method therefor and use thereof” (Sichuan University, priority 2020, dated 2026):

Experiments:
DC2.4 cells = assay: Uptake of the microemulsion vaccine system by the DC2.4 cells (flow cytometer); format: cell-based; conditions: 1.5 hours at 37° C.
Method: Uptake of the aluminum hydroxide microemulsion vaccine system by the DC2.4 cells: 1×10^6 DC2.4 cells are implanted in each well of a 12-well plate, put into an incubator for 4-6 hours, 5 μg of FITC labeled OVA or the aluminum hydroxide microemulsion entrapping the same amount of the FITC labeled OVA and prepared according to embodiment 6 are added into each well after cell anchorage. Supernatants are discarded after uptake for 1.5 hours at 37° C., cell surfaces are washed with PBS two times slightly, and then directly blown with the PBS, and the cells are centrifugally washed twice at 2000 rpm for 3 min, finally re-suspended by using 400 μl of PBS, and tested by a flow cytometer. […] In the figure, the Free OVA represents free FITC labeled OVA, and NE-OVA represents the aluminum hydroxide microemulsion entrapping the FITC labeled OVA.
Uptake of the ferric hydroxide microemulsion vaccine system by the DC2.4 cells: 1×10^6 DC2.4 cells are implanted in each well of a 12-well plate, and put into an incubator for 4-6 hours, and 2 μg of FITC labeled melanoma antigen peptide GP100 (ITDQVPFSV) or the ferric hydroxide microemulsion entrapping the same amount of the FITC labeled melanoma antigen peptide GP100 (ITDQVPFSV) prepared according to embodiment 9 is added into each well after cell anchorage. […]

mice = assay: Cytotoxic T lymphocyte (CTL) test by CFSE staining method in immunized mice; format: in vivo; conditions: 25 μl into paws of mice on Day 0, 7, 14; 5 μg OVA, 0.5 μg CpG; CTL on Day 21
Method: Cytotoxic T lymphocyte (CTL) test and immune antibody testing of the aluminum hydroxide microemulsion vaccine system: 25 μl of the aluminum hydroxide microemulsion entrapping OVA and prepared in embodiment 6, the aluminum hydroxide microemulsion entrapping OVA and CpG and prepared in embodiment 7, and free OVA or free OVA and CpG (including 5 μg of OVA and 0.5 μg of CpG) are injected into paws of immunized mice on Day 0, Day 7 and Day 14, and CTL response in the body is tested by a CFSE staining method on Day 21. […] In the figure, OVA represents free OVA, NE-OVA represents the aluminum hydroxide microemulsion entrapping OVA, OVA+CpG represents free OVA and CpG, and NE-OVA-CpG represents the aluminum hydroxide microemulsion entrapping OVA and CpG.

Molecule | uptake by the DC2.4 cells (in words) (DC2.4 cells; 2 μg FITC labeled GP100 per well) | antigen-specific cellular immune response (CTL) (mice) | uptake by the DC2.4 cells (in words) (DC2.4 cells; 5 μg FITC labeled OVA per well)
melanoma antigen peptide GP100 (ITDQVPFSV) [Free-GP100, reference compound] | barely taken up |  | 
chicken ovalbumin (protein, UniProt P01012 2-386, looked up, FITC label in uptake test, free model antigen chicken ovalbumin (OVA); FITC labeled in the uptake test) Ovalbumin: GSIGAASMEFCFDVFKELKVHHANENIFYCPIAIMSALAMVYLGAKDSTRTQINKVVRFDKLPGFGDSIEAQCGTSVNVHSSLRDILNQITKPNDVYSFSLASRLYAEERYPILPEYLQCVKELYRGGLEPINFQTAADQARELINSWVESQTNGIIRNVLQPSSVDSQTAMVLVNAIVFKGLWEKAFKDEDTQAMPFRVTEQESKPVQMMYQIGLFRVASMASEKMKILELPFASGTMSMLVLLPDEVSGLEQLESIINFEKLTEWTSSNVMEERKIKVYLPRMKMEEKYNLTSVLMAMGITDVFSSSANLSGISSAESLKISQAVHAAHAEINEAGREVVGSAEAGVDAASVSEEFRADHPFLFCIKHIATNAVLFFGRCVSP |  | cannot induce the antigen-specific cellular immune response | barely taken up
